According to paper doi:10.1101/2025.07.08.663435 (bioRxiv, 2025):

B1: SMCHD1^△CC, truncated SMCHD1 without both coiled-coil domains, purified (natural protein, human, UniProt A6NHR9 1-2005, looked up)
chain: MAAADGGGPGGASVGTEEDGGGVGHRTVYLFDRREKESELGDRPLQVGERSDYAGFRACVCQTLGISPEEKFVITTTSRKEITCDNFDETVKDGVTLYLLQSVNQLLLTATKERIDFLPHYDTLVKSGMYEYYASEGQNPLPFALAELIDNSLSATSRNIGVRRIQIKLLFDETQGKPAVAVIDNGRGMTSKQLNNWAVYRLSKFTRQGDFESDHSGYVRPVPVPRSLNSDISYFGVGGKQAVFFVGQSARMISKPADSQDVHELVLSKEDFEKKEKNKEAIYSGYIRNRKPSDSVHITNDDERFLHHLIIEEKEKDSFTAVVITGVQPEHIQYLKNYFHLWTRQLAHIYHYYIHGPKGNEIRTSKEVEPFNNIDIEISMFEKGKVPKIVNLREIQDDMQTLYVNTAADSFEFKAHVEGDGVVEGIIRYHPFLYDRETYPDDPCFPSKLKDEDDEDDCFILEKAARGKRPIFECFWNGRLIPYTSVEDFDWCTPPKKRGLAPIECYNRISGALFTNDKFQVSTNKLTFMDLELKLKDKNTLFTRILNGQEQRMKIDREFALWLKDCHEKYDKQIKFTLFKGVITRPDLPSKKQGPWATYAAIEWDGKIYKAGQLVKTIKTLPLFYGSIVRFFLYGDHDGEVYATGGEVQIAMEPQALYDEVRTVPIAKLDRTVAEKAVKKYVEDEMARLPDRLSVTWPEGDELLPNEVRPAGTPIGALRIEILNKKGEAMQKLPGTSHGGSKKLLVELKVILHSSSGNKEIISHISQHGGKWPYWFKKMENIQKLGNYTLKLQVVLNESNADTYAGRPLPSKAIKFSVKEGKPEKFSFGLLDLPFRVGVPFNIPLEFQDEFGHTSQLVTDIQPVLEASGLSLHYEEITKGPNCVIRGVTAKGPVNSCQGKNYNLKVTLPGLKEDSQILKIRLLPGHPRRLKVKPDSEILVIENGTAFPFQVEVLDESDNITAQPKLIVHCKFSGAPNLPVYVVDCSSSGTSILTGSAIQVQNIKKDQTLKARIEIPSCKDVAPVEKTIKLLPSSHVARLQIFSVEGQKAIQIKHQDEVNWIAGDIMHNLIFQMYDEGEREINITSALAEKIKVNWTPEINKEHLLQGLLPDVQVPTSVKDMRYCQVSFQDDHVSLESAFTVRPLPDEPKHLKCEMKGGKTVQMGQELQGEVVIIITDQYGNQIQAFSPSSLSSLSIAGVGLDSSNLKTTFQENTQSISVRGIKFIPGPPGNKDLCFTWREFSDFIRVQLISGPPAKLLLIDWPELKESIPVINGRDLQNPIIVQLCDQWDNPAPVQHVKISLTKASNLKLMPSNQQHKTDEKGRANLGVFSVFAPRGEHTLQVKAIYNKSIIEGPIIKLMILPDPEKPVRLNVKYDKDASFLAGGLFTDFMISVISEDDSIIKNINPARISMKMWKLSTSGNRPPANAETFSCNKIKDNDKEDGCFYFRDKVIPNKVGTYCIQFGFMMDKTNILNSEQVIVEVLPNQPVKLVPKIKPPTPAVSNVRSVASRTLVRDLHLSITDDYDNHTGIDLVGTIIATIKGSNEEDTDTPLFIGKVRTLEFPFVNGSAEIMSLVLAESSPGRDSTEYFIVFEPRLPLLSRTLEPYILPFMFYNDVQQVPHIEALLKRKLSEQEELKKKPRRSCTLPNYTKGSGDVLGKIAHLAQIEDDRAAMVISWHLASDMDCVVTLTTDAARRIYDETQGRQQVLPLDSIYKKTLPDWKRSLPHFRNGKLYFKPIGDPVFARDLLTFPDNVEHCETVFGMLLGDTIILDNLDAANHYRKEVVKITHCPTLLTRDGDRIRSNGKFGGLQNKAPPMDKLRGMVFGAPVPKQCEEKLGMTPIRKCNDSLRHSPKVETTDCPVPPKRMRREATRQNRIITKTDV
B2: FAM 37 bp duplex (dsDNA)
DNA 1: CCTAGGCTACACCTACTCTTTGTAAGAATTAAGCTTC
DNA 2: GAAGCTTAATTCTTACAAAGAGTAGGTGTAGCCTAGG

What was measured:
[1] = biological target: the molecule itself; experiment: atomic force microscopy
[2] = biological target: T1, SMCHD1 ATPase domain (UniProt A6NHR9 25-581); experiment: EMSA
T1 sequence: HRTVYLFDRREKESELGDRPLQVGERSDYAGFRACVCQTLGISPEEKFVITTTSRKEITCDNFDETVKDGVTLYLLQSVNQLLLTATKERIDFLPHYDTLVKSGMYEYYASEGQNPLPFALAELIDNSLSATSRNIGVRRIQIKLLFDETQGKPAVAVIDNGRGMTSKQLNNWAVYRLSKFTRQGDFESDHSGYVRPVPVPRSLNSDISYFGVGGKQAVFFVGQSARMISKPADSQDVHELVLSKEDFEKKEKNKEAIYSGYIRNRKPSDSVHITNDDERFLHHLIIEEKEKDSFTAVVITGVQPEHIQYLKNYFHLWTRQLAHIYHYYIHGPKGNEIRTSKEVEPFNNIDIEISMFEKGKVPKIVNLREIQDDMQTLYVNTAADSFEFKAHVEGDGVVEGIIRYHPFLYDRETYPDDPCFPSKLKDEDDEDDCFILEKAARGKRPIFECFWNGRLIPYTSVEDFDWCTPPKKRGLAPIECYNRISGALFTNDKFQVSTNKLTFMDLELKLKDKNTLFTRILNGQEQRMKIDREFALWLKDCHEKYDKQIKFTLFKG

Binder	binding result [1]	binding result [2]
B1	binds	
B2		binds
